± gives the uncertainty stated by the source.
B1: Glucocorticoid receptor, residues 419 to 494; numbered along this chain, P04150 (parent)
chain: KLCLVCSDEASGCHYGVLTCGSCKVFFKRAVEGQHNYLCAGRNDCIIDKIRRKNCPACRYRKCLQAGMNLEARKTK

Variants of: B1
Test: abundance fitness (aPCA) (normalised: wild type 0, dead -1); higher = more abundant; growth selection in yeast, the domain comes from the species named
Settings: Homo sapiens

Variant | abundance fitness
KLCLVCSDEASGCHYSVLTCGSCKVFFKRAVEGQHNYLCAGRNDCIIDKIRRKNCPACRYRKCLQAGMNLEARKTK | -0.182 ± 0.04
KLCLVCSDEASGCHYGVLTCKSCKVFFKRAVEGQHNYLCAGRNDCIIDKIRRKNCPACRYRKCLQAGMNLEARKTK | 0.008 ± 0.045
KLCLVCSDEASGCHYGVLTCGSCKVFFKRAVEGQDNYLCAGRNDCIIDKIRRKNCPACRYRKCLQAGMNLEARKTK | 0.005 ± 0.066
KLCLVCSDEASGCHYGVLTCGSCKVFFKRAVEGQHNYLCAGRNDCIIDKIWRKNCPACRYRKCLQAGMNLEARKTK | -0.083 ± 0.043
KLCLVCSDEASGCHYGVLTCGSCKVFFKRAVEGQHNYLCAGRNDCIIDKIRRKNCPACRYRKCLQAPMNLEARKTK | -0.904 ± 0.19
KLCLVKSDEASGCHYGVLTCGSCKVFFKRAVEGQHNYLCAGRNDCIIDKIRRKNCPACRYRKCLQAGMNLEARKTK | -1.01 ± 0.22
KLCLVCSDEASGCHYGVLTCGSCKVFFKRAVEGQHNYLCAGRNDCIIDKIRRKNCPACRYRKGLQAGMNLEARKTK | -0.06 ± 0.031
KLCLVCSDEASGCHYGVLTCGSCKVFFKRAVEGQHNYLCAGRNDCIIDKIRRWNCPACRYRKCLQAGMNLEARKTK | -0.075 ± 0.039
KLCLVCSDEASGCHYGVLTCGSCKVFDKRAVEGQHNYLCAGRNDCIIDKIRRKNCPACRYRKCLQAGMNLEARKTK | -0.912 ± 0.18
KLCLVCSDEASGCHYGVLTCGSCKVFFKRAVEGQHNYLCAGRNDMIIDKIRRKNCPACRYRKCLQAGMNLEARKTK | -1.18 ± 0.32
KLCLVCSDEASGCHYGVLTCGSCKVFFKRAPEGQHNYLCAGRNDCIIDKIRRKNCPACRYRKCLQAGMNLEARKTK | -0.567 ± 0.1
KLCLVCSDEASGCHYGVLTCGSCKVFFKRAVEGQHNYLCAGRNDCIIDKIRRKNCPACRYRKCLWAGMNLEARKTK | -0.063 ± 0.042
KLCLVCSDEASGCHYGVLTCGSCKVFFKRAVEGQHNYLCAGENDCIIDKIRRKNCPACRYRKCLQAGMNLEARKTK | 0.011 ± 0.04
KLCLVCVDEASGCHYGVLTCGSCKVFFKRAVEGQHNYLCAGRNDCIIDKIRRKNCPACRYRKCLQAGMNLEARKTK | -0.374 ± 0.046
KLCLVCSDEASGCHYGMLTCGSCKVFFKRAVEGQHNYLCAGRNDCIIDKIRRKNCPACRYRKCLQAGMNLEARKTK | -0.379 ± 0.35
KLCLVCNDEASGCHYGVLTCGSCKVFFKRAVEGQHNYLCAGRNDCIIDKIRRKNCPACRYRKCLQAGMNLEARKTK | -0.111 ± 0.065
KLCLVCSDEASGCHYGVLTCGSCKVFFKRAVEGQHNYLCAGRNDCIIDKIVRKNCPACRYRKCLQAGMNLEARKTK | -0.068 ± 0.036
KLCLVCSDEASGCYYGVLTCGSCKVFFKRAVEGQHNYLCAGRNDCIIDKIRRKNCPACRYRKCLQAGMNLEARKTK | -0.068 ± 0.075

Variant | abundance fitness
KLCLVCSDEASGCHYGVLTCGSCKVFFKRAVEGQHNYLCAGRNDCIIDKIRRKNCPACRLRKCLQAGMNLEARKTK | 0.002 ± 0.036
KLCLVCSDEASGCHYGVLTCGSCKVFFKRAVEGQHNYLCAGRNDCIIDKIRRKNCPACRYRKCLQAGMNLVARKTK | -0.01 ± 0.038
KLCLVCSDEASGCHYGFLTCGSCKVFFKRAVEGQHNYLCAGRNDCIIDKIRRKNCPACRYRKCLQAGMNLEARKTK | -0.355 ± 0.084
KLCLVCSDEASGCHYGVLTCGSCKVFFKRAVEGQHNYLCAGRNDCIIDKIRRKNFPACRYRKCLQAGMNLEARKTK | -1.02 ± 0.3
KLCLVCSDEAYGCHYGVLTCGSCKVFFKRAVEGQHNYLCAGRNDCIIDKIRRKNCPACRYRKCLQAGMNLEARKTK | -0.174 ± 0.089
KLCLVCSDEASGCHYGVLTCGSCKVFFKRAVEGQHNYLCAGRNDCIIDKIRRKNCPACRYRKCGQAGMNLEARKTK | -0.273 ± 0.036
KLCLVCSDEASGCHYGVLTCGSCKVFFKRAVEGQHNYLCAGRNDCIIDKIRRKNCPTCRYRKCLQAGMNLEARKTK | -0.571 ± 0.071
KLCLVCSDEASGCHYGVLTCGSCKVFFKRAVEGQHNYLCAGRNDCIIDKIRRKNCPACRYRKCLQAYMNLEARKTK | -0.304 ± 0.16
KLCLVCSDEASGCHYGVLTCGSCKVFFKRAVEGQHNYLCAGRNDCIIDKIRRKNCEACRYRKCLQAGMNLEARKTK | 0.015 ± 0.037
KLCLVCSDEASGCHYGVLTCGSCKVFFKRAVEGQHNYLCAIRNDCIIDKIRRKNCPACRYRKCLQAGMNLEARKTK | -0.101 ± 0.061
KLCLVQSDEASGCHYGVLTCGSCKVFFKRAVEGQHNYLCAGRNDCIIDKIRRKNCPACRYRKCLQAGMNLEARKTK | -0.805 ± 0.16
KLCLVCSDEASGCHYGVLTCGSCKVFFKRAVEGQHNYLCAGRNDCIIDKIGRKNCPACRYRKCLQAGMNLEARKTK | 0.009 ± 0.031
KLCLVCSDEASGCHYGVLTCGSCKVFFKRAVEGQHNYLCAGRNDCIIDKIRRKNCPACRYRKCLFAGMNLEARKTK | -0.045 ± 0.065
KLCLVCSDEASGCHYGVLTCGSCKVFFKRAVEGQHNYLCAGRNDCIIDKIRRGNCPACRYRKCLQAGMNLEARKTK | 0.039 ± 0.033
KLCLVCSDEASGCHYGVLTCGSCKVFFKREVEGQHNYLCAGRNDCIIDKIRRKNCPACRYRKCLQAGMNLEARKTK | -0.142 ± 0.043
KLCLVCSDEASGCHYGVLTCGSCKVFFKRAVEGQHNYLCAGRNDCIIDKIRRKNCPACRYRKCYQAGMNLEARKTK | -0.161 ± 0.061
KLCLVCSDEASGCHYGVLTCGSCKVFFKRAVEGQHNYLCAGRNDCIGDKIRRKNCPACRYRKCLQAGMNLEARKTK | -0.304 ± 0.034
KLCLVCSDEASGCHYGVLTCGSCKVFYKRAVEGQHNYLCAGRNDCIIDKIRRKNCPACRYRKCLQAGMNLEARKTK | 0 ± 0.073
